In paper PMC9482650, “Quantitative fragmentomics allow affinity mapping of interactomes” (Nature Communications, 2022):

Experiments:
Test in all cases: holdup assay
Set-up in all cases: key: below the threshold = too weak to quantify, mostly under pKd 3.1 to 4
[1] = biological target: T1, APBA1_1, Q02410
T1 sequence (Q02410 651-752, limits assumed, looked up): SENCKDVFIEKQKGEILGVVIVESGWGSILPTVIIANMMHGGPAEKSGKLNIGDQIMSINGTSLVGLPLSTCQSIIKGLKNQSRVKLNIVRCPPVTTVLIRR

[2] = biological target: T2, APBA1_2, Q02410
T2 sequence (Q02410 742-832, limits assumed, looked up): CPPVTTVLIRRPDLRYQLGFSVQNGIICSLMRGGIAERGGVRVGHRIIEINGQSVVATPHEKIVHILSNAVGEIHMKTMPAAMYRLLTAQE

[3] = biological target: T3, DFNB31_2, Q9P202
T3 sequence (Q9P202 274-371, limits assumed, looked up): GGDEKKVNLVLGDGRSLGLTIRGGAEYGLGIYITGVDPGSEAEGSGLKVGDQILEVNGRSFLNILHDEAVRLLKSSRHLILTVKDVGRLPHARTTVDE

[4] = biological target: DLG4_3, P78352
[5] = biological target: T4, FRMPD1, Q5SYB0
T4 sequence (Q5SYB0 52-145, limits assumed, looked up): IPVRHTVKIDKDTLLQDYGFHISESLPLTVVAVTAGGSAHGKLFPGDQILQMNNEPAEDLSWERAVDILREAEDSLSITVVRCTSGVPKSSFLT

[6] = biological target: GIPC2, Q8TF65
[7] = biological target: GOPC, Q9HD26
[8] = biological target: T5, GRIP1_4, Q9Y3R0
T5 sequence (Q9Y3R0 467-571, limits assumed, looked up): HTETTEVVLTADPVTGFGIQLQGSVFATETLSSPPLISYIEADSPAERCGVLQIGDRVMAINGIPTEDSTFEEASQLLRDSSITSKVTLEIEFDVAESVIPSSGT

[9] = biological target: T6, GRIP1_5, Q9Y3R0
T6 sequence (Q9Y3R0 568-668, limits assumed, looked up): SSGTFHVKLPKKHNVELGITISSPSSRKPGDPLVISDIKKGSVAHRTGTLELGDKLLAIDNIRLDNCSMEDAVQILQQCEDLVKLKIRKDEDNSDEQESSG

[10] = biological target: HTRA1, Q92743
[11] = biological target: T7, HTRA3, P83110
T7 sequence (P83110 354-453, limits assumed, looked up): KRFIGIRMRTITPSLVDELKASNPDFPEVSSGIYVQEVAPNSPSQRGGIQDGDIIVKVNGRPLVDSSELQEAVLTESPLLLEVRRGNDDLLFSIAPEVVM

[12] = biological target: T8, HTRA4, P83105
T8 sequence (P83105 378-476, limits assumed, looked up): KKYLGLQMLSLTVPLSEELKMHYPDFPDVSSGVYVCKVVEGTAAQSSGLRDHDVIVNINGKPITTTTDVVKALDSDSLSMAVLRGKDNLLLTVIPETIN

[13] = biological target: Inadl_1, Q8NI35
[14] = biological target: Inadl_2, Q8NI35
[15] = biological target: Inadl_3, Q8NI35
[16] = biological target: Inadl_4, Q8NI35
[17] = biological target: MAGI2_4, Q86UL8
[18] = biological target: T9, MPDZ_10, O75970
T9 sequence (O75970 1624-1722, limits assumed, looked up): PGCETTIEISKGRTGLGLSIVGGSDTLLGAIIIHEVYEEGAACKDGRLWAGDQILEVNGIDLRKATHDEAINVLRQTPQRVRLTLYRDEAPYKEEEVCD

[19] = biological target: NHERF4_1, Q86UT5-2
[20] = biological target: NOS1, P29475
[21] = biological target: T10, PDZRN3_1, Q9UPQ7
T10 sequence (Q9UPQ7 244-349, limits assumed, looked up): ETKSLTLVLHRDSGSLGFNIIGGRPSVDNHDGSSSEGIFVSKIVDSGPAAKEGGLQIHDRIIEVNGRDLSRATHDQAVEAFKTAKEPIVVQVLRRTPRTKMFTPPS

[22] = biological target: SCRIB_2, Q14160
[23] = biological target: SCRIB_3, Q14160
[24] = biological target: T11, TIAM2, Q8IVF5
T11 sequence (Q8IVF5 885-986, limits assumed, looked up): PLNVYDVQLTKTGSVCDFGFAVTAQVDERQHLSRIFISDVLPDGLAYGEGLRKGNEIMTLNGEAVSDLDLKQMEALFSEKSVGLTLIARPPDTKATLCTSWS

[25] = biological target: TJP2_1, Q9UDY2
[26] = biological target: T12, TJP3_3, O95049
T12 sequence (O95049 375-456, limits assumed, looked up): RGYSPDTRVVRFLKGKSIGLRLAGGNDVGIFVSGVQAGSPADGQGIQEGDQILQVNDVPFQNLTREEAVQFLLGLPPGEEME

[27] = plain residues with an end cap or a label only (N-terminal biotin on a linker: ado-ado)
[28] = plain residues with an end cap or a label only (N-terminal biotin on a linker: ttds)

NOS1, P29475, sequence (P29475 9-101): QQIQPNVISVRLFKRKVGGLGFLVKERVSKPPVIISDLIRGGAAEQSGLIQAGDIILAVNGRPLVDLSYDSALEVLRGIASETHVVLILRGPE
MAGI2_4, Q86UL8, sequence (Q86UL8 772-865): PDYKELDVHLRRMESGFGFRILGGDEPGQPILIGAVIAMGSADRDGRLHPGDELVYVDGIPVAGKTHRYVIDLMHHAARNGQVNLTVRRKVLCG
NHERF4_1, Q86UT5-2, sequence (Q86UT5 other isoform, or with tags, fused parts or gaps): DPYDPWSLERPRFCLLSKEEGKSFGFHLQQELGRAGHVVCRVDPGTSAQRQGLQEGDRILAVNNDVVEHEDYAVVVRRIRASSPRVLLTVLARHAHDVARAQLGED
Inadl_1, Q8NI35, sequence (Q8NI35 113-229): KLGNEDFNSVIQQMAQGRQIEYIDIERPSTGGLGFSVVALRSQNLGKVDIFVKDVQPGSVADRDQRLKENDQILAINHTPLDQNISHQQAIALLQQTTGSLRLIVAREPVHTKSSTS
Inadl_2, Q8NI35, sequence (Q8NI35 238-335): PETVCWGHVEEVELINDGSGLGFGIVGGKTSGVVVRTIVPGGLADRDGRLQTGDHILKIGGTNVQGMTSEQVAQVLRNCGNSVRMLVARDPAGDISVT
HTRA1, Q92743, sequence (Q92743 360-477): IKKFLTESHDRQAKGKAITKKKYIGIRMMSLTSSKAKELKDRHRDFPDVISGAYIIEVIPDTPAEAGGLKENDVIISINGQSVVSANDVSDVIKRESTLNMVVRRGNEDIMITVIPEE
Inadl_3, Q8NI35, sequence (Q8NI35 359-469): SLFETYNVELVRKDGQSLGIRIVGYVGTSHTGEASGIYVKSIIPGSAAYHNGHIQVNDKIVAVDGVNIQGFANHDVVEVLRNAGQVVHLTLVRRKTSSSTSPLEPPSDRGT
SCRIB_3, Q14160, sequence (Q14160 999-1103): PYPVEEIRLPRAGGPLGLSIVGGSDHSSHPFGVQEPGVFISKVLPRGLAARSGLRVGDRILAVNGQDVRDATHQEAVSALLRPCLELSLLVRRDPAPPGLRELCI
GIPC2, Q8TF65, sequence (Q8TF65 112-203): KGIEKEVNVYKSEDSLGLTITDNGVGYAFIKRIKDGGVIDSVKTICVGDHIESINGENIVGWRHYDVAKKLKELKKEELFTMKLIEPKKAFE
SCRIB_2, Q14160, sequence (Q14160 857-960): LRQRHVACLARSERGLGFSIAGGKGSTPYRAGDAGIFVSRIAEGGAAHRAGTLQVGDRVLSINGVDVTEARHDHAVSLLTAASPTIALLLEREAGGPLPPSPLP
Inadl_4, Q8NI35, sequence (Q8NI35 547-651): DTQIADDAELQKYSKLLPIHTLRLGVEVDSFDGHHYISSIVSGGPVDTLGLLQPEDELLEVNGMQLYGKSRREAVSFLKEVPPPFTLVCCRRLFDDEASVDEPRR
DLG4_3, P78352, sequence (P78352 306-403): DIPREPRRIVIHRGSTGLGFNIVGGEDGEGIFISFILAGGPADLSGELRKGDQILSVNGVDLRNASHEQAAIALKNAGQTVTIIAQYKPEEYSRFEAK
TJP2_1, Q9UDY2, sequence (Q9UDY2 24-128): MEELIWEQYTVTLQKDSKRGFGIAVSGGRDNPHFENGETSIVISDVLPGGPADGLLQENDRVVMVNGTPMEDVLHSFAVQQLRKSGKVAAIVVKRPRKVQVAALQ

FVHPILQSAV [PRKCA, P17252]
pKd [1, 27]: below the threshold | pKd [2, 27]: 3.69 | pKd [3, 27]: below the threshold | pKd [4, 27]: 3.88 | pKd [5, 27]: below the threshold | pKd [6, 27]: below the threshold | pKd [7, 27]: 4 | pKd [8, 27]: below the threshold | pKd [9, 27]: below the threshold | pKd [10, 27]: below the threshold | pKd [11, 27]: below the threshold | pKd [12, 27]: below the threshold | pKd [13, 27]: below the threshold | pKd [14, 27]: below the threshold | pKd [15, 27]: below the threshold | pKd [16, 27]: below the threshold | pKd [17, 27]: below the threshold | pKd [18, 27]: below the threshold | pKd [19, 27]: 3.78 | pKd [20, 27]: 3.57 | pKd [21, 27]: 4.21 | pKd [22, 27]: 4.29 | pKd [23, 27]: 4.3 | pKd [24, 27]: below the threshold | pKd [25, 27]: below the threshold | pKd [26, 27]: below the threshold

SRRPRTETQV [HPV31-E6, P17386]
pKd [1, 28]: below the threshold | pKd [2, 28]: below the threshold | pKd [3, 28]: below the threshold | pKd [4, 28]: 5.1 | pKd [5, 28]: below the threshold | pKd [6, 28]: below the threshold | pKd [7, 28]: below the threshold | pKd [8, 28]: below the threshold | pKd [9, 28]: below the threshold | pKd [10, 28]: below the threshold | pKd [11, 28]: below the threshold | pKd [12, 28]: below the threshold | pKd [13, 28]: below the threshold | pKd [14, 28]: below the threshold | pKd [15, 28]: below the threshold | pKd [16, 28]: below the threshold | pKd [17, 28]: 4.48 | pKd [18, 28]: below the threshold | pKd [19, 28]: below the threshold | pKd [20, 28]: 3.91 | pKd [21, 28]: 4.09 | pKd [22, 28]: 4.38 | pKd [23, 28]: 4.56 | pKd [24, 28]: below the threshold | pKd [25, 28]: 3.66 | pKd [26, 28]: below the threshold

LCALPKVTTV [AGMAT, Q9BSE5]
pKd [1, 28]: below the threshold | pKd [2, 28]: 3.86 | pKd [3, 28]: 3.77 | pKd [4, 28]: 4.23 | pKd [5, 28]: below the threshold | pKd [6, 28]: below the threshold | pKd [7, 28]: 3.78 | pKd [8, 28]: below the threshold | pKd [9, 28]: below the threshold | pKd [10, 28]: 4.75 | pKd [11, 28]: 3.71 | pKd [12, 28]: 4.66 | pKd [13, 28]: 3.57 | pKd [14, 28]: below the threshold | pKd [15, 28]: 3.54 | pKd [16, 28]: below the threshold | pKd [17, 28]: 4.55 | pKd [18, 28]: 4.14 | pKd [19, 28]: below the threshold | pKd [20, 28]: 3.7 | pKd [21, 28]: below the threshold | pKd [22, 28]: below the threshold | pKd [23, 28]: 4.24 | pKd [24, 28]: below the threshold | pKd [25, 28]: 3.91 | pKd [26, 28]: below the threshold
